Results: US20220380456A1 (UNITED KINGDOM RESEARCH AND INNOVATION, published 2022)

T1: His6-TEV-MSP1D1 (CA15914) (human Apo A-I derived, engineered, biotinylated with EZ-link NHS-Biotin for the BLI experiment only)
T1 construct: Membrane scaffold protein; The entry holds the 6xHis tag, the TEV cleavage site and MSP1D1; Tested in Apo-state (lipid free) and in Nanodisc-state (POPC nanodisc, two MSP1D1 per nanodisc)
T1 chain: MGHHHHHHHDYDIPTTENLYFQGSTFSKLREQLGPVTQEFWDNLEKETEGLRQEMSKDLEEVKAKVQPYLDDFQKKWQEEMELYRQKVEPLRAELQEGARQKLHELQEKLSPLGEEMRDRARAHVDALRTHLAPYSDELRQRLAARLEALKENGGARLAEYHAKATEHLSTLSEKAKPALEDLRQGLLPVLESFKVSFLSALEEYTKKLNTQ


Legend:
[1] = target: T2, His6-TEV-MSP2N2 (CA15915) (human Apo A-I derived, engineered, UniProt P02647 79-267, limits assumed); test: ELISA, periplasmic extract on coated MSP (1 µg/mL in 100 µL, Apo- and Nanodisc-state), EPEA-tag detection, OD405 after overnight
T2 construct: Membrane scaffold protein; The entry holds the 6xHis tag, the TEV cleavage site and MSP2N2; Tested in Apo-state, in Nanodisc-state, and as the belt of nanodiscs loaded with GABAAR-β3
Protocol: (§1) Nanobodies were detected after 1 h (FIG. 2A) and overnight (FIG. 2B) subsequent incubation with a biotinylated CaptureSelect antibody and developed with a Streptavidin Alkaline Phosphatase conjugate.

[2] = target: T1, His6-TEV-MSP1D1 (CA15914); test: ELISA, periplasmic extract on coated MSP (1 µg/mL in 100 µL, Apo- and Nanodisc-state), EPEA-tag detection, OD405 after 1 h
Protocol: as §1

[3] = target: T2, His6-TEV-MSP2N2 (CA15915); test: as above
Protocol: as §1

[4] = target: T2, His6-TEV-MSP2N2 (CA15915); test: ELISA, purified MegaBody on coated MSP (Apo- or Nanodisc-state) vs non-coated wells, A405
[5] = target: T1, His6-TEV-MSP1D1 (CA15914); test: as above

| Binder | binding result [1] | binding result [2] | binding result [3] | fold ELISA signal over no MSP [4] [fold] | fold ELISA signal over no MSP [5] [fold] |
| --- | --- | --- | --- | --- | --- |
| MP1521_G9 Nanobody (CA15884) (VHH, Entry includes 6xHis and EPEA tags; tested as periplasmic extract) VHH: QVQLVESGGGSVQAGGSLRLSCAASGRTFSTYRMGWFRQAPGKEREFVAGWNSINIYYADSVKGRFTISGDNAKSTVYLQMNSLKPEDTAVYYCAARGLGQTEYNYWGQGTQVTVSS | binds | binds |  |  |  |
| MP1521_E4 Nanobody (CA15889) (VHH, Entry includes 6xHis and EPEA tags; tested as periplasmic extract) VHH: QVQLVESGGGLVQAGGSLRLSCAASGRTFGSTFMGWFRQAPGKERDFVASITWNRGLTTYADSVKGRFTISRDSAKNTVDLQMNNLKPEDTAVYYCVLGMGTSFASWGQGTQVTVSS |  | binds | binds |  |  |
| MP1522_A5 Nanobody (CA15892) (VHH, Entry includes 6xHis and EPEA tags; tested as periplasmic extract) VHH: QVQLVESGGGLVQPGGSLRLSCAASGFAFSNSYMSWVRQAPGKGPEWVSSISPSAWIITHGDSVKGRFTISRDNAKNTLYLQMNHLKPEDAALYYCARRQGYDGYVPSRDYWGQGTQVTVSS |  | binds | binds |  |  |
| MbNbB4^c7HopQ MegaBody (CA15907) (other, MegaBody: c7HopQ scaffold inserted in the first β-turn of Nanobody MP1521_B4; Entry includes 6xHis and EPEA tags) QVQLVESGGGLVQTKTTTSVIDTTNDAQNLLTQAQTIVNTLKDYCPILIAKSSSSNGGTNNANTPSWQTAGGGKNSCATFGAEFSAASDMINNAQKIVQETQQLSANQPKNITQPHNLNLNSPSSLTALAQKMLKNAQSQAEILKLANQVESDFNKLSSGHLKDYIGKCDASAISSANMTMQNQKNNWGNGCAGVEETQSLLKTSAADFNNQTPQINQAQNLANTLIQELGNNTYEQLSRLLTNDNGTNSKTSAQAINQAVNNLNERAKTLAGGTTNSPAYQATLLALRSVLGLWNSMGYAVICGGYTKSPGENNQKDFHYTDENGNGTTINCGGSTNSNGTHSYNGTNTLKADKNVSLSIEQYEKIHEAYQILSKALKQAGLAPLNSKGEKLEAHVTTSKYGSLRLSCAASKSFFNIYDLAWYRQAPGKQRELVASITKVGSTNYADSVKGRFTTSRDNAKKTVYLQMNSLKPEDTAVYYCNLVSPGGVYNYWGQGTQVTVSSHHHHHHEPEA |  |  |  | ≥ 4 | ≥ 4 |
| MP1521_B9 Nanobody (CA15883) (VHH, Entry includes 6xHis and EPEA tags; tested as periplasmic extract) VHH: QVQLVESGGGLVQAGGSLRLSCAASGRTLCSIPMGWFRQAPGKEREFVAAIRWSGGSTYYADSVKGRFSISKDNAKNTVYLQMNNLKPEDTATYYCASAAPYSSWSRGLEYDYWGQGTQVTVSS |  | binds | binds |  |  |
| MP1521_B1 Nanobody (CA15895) (VHH, Entry includes 6xHis and EPEA tags; tested as periplasmic extract) VHH: QVQLVESGGGLVQPGGSLRLSCTASGFSLSSSYMDWVRQAPGKGIEWVSTISPGGRITYAVSVEGRFTLSRDNAKNTLSLQMNELKPEDTAVYYCRRLGEKGQGTQVTVSS |  | binds | binds |  |  |
| MbNbC10^c7HopQ MegaBody (CA15905) (other, MegaBody: c7HopQ scaffold inserted in the first β-turn of Nanobody MP1522_C10; Entry includes 6xHis and EPEA tags) QVQLVESGGGLVQTKTTTSVIDTTNDAQNLLTQAQTIVNTLKDYCPILIAKSSSSNGGTNNANTPSWQTAGGGKNSCATFGAEFSAASDMINNAQKIVQETQQLSANQPKNITQPHNLNLNSPSSLTALAQKMLKNAQSQAEILKLANQVESDFNKLSSGHLKDYIGKCDASAISSANMTMQNQKNNWGNGCAGVEETQSLLKTSAADFNNQTPQINQAQNLANTLIQELGNNTYEQLSRLLTNDNGTNSKTSAQAINQAVNNLNERAKTLAGGTTNSPAYQATLLALRSVLGLWNSMGYAVICGGYTKSPGENNQKDFHYTDENGNGTTINCGGSTNSNGTHSYNGTNTLKADKNVSLSIEQYEKIHEAYQILSKALKQAGLAPLNSKGEKLEAHVTTSKYGSLRLSCAASGRTSGSYAIGWFRQAPGKEREFAAAISFTAGVTYYSNSVKGRFTISRDSAKNTAYLQMNTLKPEDTAVYYCATLPSLVLILTAKPNIGYWGQGTQVTVSSHHHHHHEPEA |  |  |  | ≥ 4 | ≥ 4 |
| MbNbA5^c7HopQ MegaBody (CA15906) (other, MegaBody: c7HopQ scaffold inserted in the first β-turn of Nanobody MP1522_A5; Entry includes 6xHis and EPEA tags) QVQLVESGGGLVQTKTTTSVIDTTNDAQNLLTQAQTIVNTLKDYCPILIAKSSSSNGGTNNANTPSWQTAGGGKNSCATFGAEFSAASDMINNAQKIVQETQQLSANQPKNITQPHNLNLNSPSSLTALAQKMLKNAQSQAEILKLANQVESDFNKLSSGHLKDYIGKCDASAISSANMTMQNQKNNWGNGCAGVEETQSLLKTSAADFNNQTPQINQAQNLANTLIQELGNNTYEQLSRLLTNDNGTNSKTSAQAINQAVNNLNERAKTLAGGTTNSPAYQATLLALRSVLGLWNSMGYAVICGGYTKSPGENNQKDFHYTDENGNGTTINCGGSTNSNGTHSYNGTNTLKADKNVSLSIEQYEKIHEAYQILSKALKQAGLAPLNSKGEKLEAHVTTSKYGSLRLSCAASGFAFSNSYMSWVRQAPGKGPEWVSSISPSAWIITHGDSVKGRFTISRDNAKNTLYLQMNHLKPEDAALYYCARRQGYDGYVPSRDYWGQGTQVTVSSHHHHHHEPEA |  |  |  | ≥ 4 | ≥ 4 |
| MP1521_B4 Nanobody (CA15893) (VHH, Entry includes 6xHis and EPEA tags; tested as periplasmic extract) VHH: QVQLVESGGGLVQPGGSLRLSCAASKSFFNIYDLAWYRQAPGKQRELVASITKVGSTNYADSVKGRFTTSRDNAKKTVYLQMNSLKPEDTAVYYCNLVSPGGVYNYWGQGTQVTVSS |  | binds | binds |  |  |
| MP1522_B9 Nanobody (CA15888) (VHH, Entry includes 6xHis and EPEA tags; tested as periplasmic extract) VHH: QVQLVESGGGLVQAGGSLRLSCVRSARTFGSVAMGWFRQAPGKEREFVTAIDWSGSNTLYADSVKGRFTISRDNAKNTVYLQMNSLKPDDTAVYYCAASRRVVVTTSDFDSWGQGTQVTVSS |  | binds | binds |  |  |
| MbNbE1^c7HopQ MegaBody (CA15909) (other, MegaBody: c7HopQ scaffold inserted in the first β-turn of Nanobody MP1521_E1; Entry includes 6xHis and EPEA tags) QVQLVESGGGLVQTKTTTSVIDTTNDAQNLLTQAQTIVNTLKDYCPILIAKSSSSNGGTNNANTPSWQTAGGGKNSCATFGAEFSAASDMINNAQKIVQETQQLSANQPKNITQPHNLNLNSPSSLTALAQKMLKNAQSQAEILKLANQVESDFNKLSSGHLKDYIGKCDASAISSANMTMQNQKNNWGNGCAGVEETQSLLKTSAADFNNQTPQINQAQNLANTLIQELGNNTYEQLSRLLTNDNGTNSKTSAQAINQAVNNLNERAKTLAGGTTNSPAYQATLLALRSVLGLWNSMGYAVICGGYTKSPGENNQKDFHYTDENGNGTTINCGGSTNSNGTHSYNGTNTLKADKNVSLSIEQYEKIHEAYQILSKALKQAGLAPLNSKGEKLEAHVTTSKYGSLRLSCAASGTITRSPTMSWARQAPGRQREWVTSILGTGRTDYADSVKGRFTISRDNANNTVYLQMNNLKPEDSAVYYCYTVLNGRPSWGQGTQVTVSSHHHHHHEPEA |  |  |  | ≥ 4 | ≥ 4 |
| MP1522_C10 Nanobody (CA15891) (VHH, Entry includes 6xHis and EPEA tags; tested as periplasmic extract) VHH: QVQLVESGGGLVQAGGSLRLACAASGRTSGSYAIGWFRQAPGKEREFAAAISFTAGVTYYSNSVKGRFTISRDSAKNTAYLQMNTLKPEDTAVYYCATLPSLVLILTAKPNIGYWGQGTQVTVSS |  | binds | binds |  |  |
| MP1521_E1 Nanobody (CA15896) (VHH, Entry includes 6xHis and EPEA tags; tested as periplasmic extract) VHH: QVQLVESGGGLVQPGGSLRLSCAASGTITRSPTMSWARQAPGRQREWVTSILGTGRTDYADSVKGRFTISRDNANNTVYLQMNNLKPEDSAVYYCYTVLNGRPSWGQGTQVTVSS |  | binds | binds |  |  |
| MP1521_H5 Nanobody (CA15890) (VHH, Entry includes 6xHis and EPEA tags; tested as periplasmic extract) VHH: QVQLVESGGGLVQPGGSLKLSCAASGFTFSTYSMSWVRQAPGKGLEWVSRILTDGGTTSYPDSVKGRFTISRDNAKNTLYLQMNNLKPEDTAVYYCARGWPSDGYSGGYRGQGTQVTVSS |  | binds | binds |  |  |
| MP1521_F3 Nanobody (CA15894) (VHH, Entry includes 6xHis and EPEA tags; tested as periplasmic extract; also called Nb F3) VHH: QVQLVESGGGLVQPGGSLRLSCAASGSGFGPNVMGWYRQAPGKRRELVATINRIGNINYGDSVKGRFTLSREIAVNTVYLQMNSLKPEDAANYYCYAAKYGVDYWGKGTQVTVSS |  | binds | binds |  |  |
| MbNbB1^c7HopQ MegaBody (CA15908) (other, MegaBody: c7HopQ scaffold inserted in the first β-turn of Nanobody MP1521_B1; Entry includes 6xHis and EPEA tags) QVQLVESGGGLVQTKTTTSVIDTTNDAQNLLTQAQTIVNTLKDYCPILIAKSSSSNGGTNNANTPSWQTAGGGKNSCATFGAEFSAASDMINNAQKIVQETQQLSANQPKNITQPHNLNLNSPSSLTALAQKMLKNAQSQAEILKLANQVESDFNKLSSGHLKDYIGKCDASAISSANMTMQNQKNNWGNGCAGVEETQSLLKTSAADFNNQTPQINQAQNLANTLIQELGNNTYEQLSRLLTNDNGTNSKTSAQAINQAVNNLNERAKTLAGGTTNSPAYQATLLALRSVLGLWNSMGYAVICGGYTKSPGENNQKDFHYTDENGNGTTINCGGSTNSNGTHSYNGTNTLKADKNVSLSIEQYEKIHEAYQILSKALKQAGLAPLNSKGEKLEAHVTTSKYGSLRLSCTASGFSLSSSYMDWVRQAPGKGIEWVSTISPGGRITYAVSVEGRFTLSRDNAKNTLSLQMNELKPEDTAVYYCRRLGEKGQGTQVTVSSHHHHHHEPEA |  |  |  | ≥ 4 | ≥ 4 |
